Reference: US11629193B2, “EGFR binding molecules” (F-STAR BETA LIMITED, priority 2016, dated 2023)
“Also recorded” adds a separate entry of the source.

How the values were obtained:
HER3 = molecular target: T1, HER3 (Homo sapiens, UniProt P21860); assay: ELISA for specific binding within the HER receptor family; conditions: 1 μM, antigen coated at 1 μg/ml
T1 construct: purchased Sino Biological 10201-H08H
Protocol: Antigens including EGFR (produced in house), HER2 His Tag (Sino Biological, 10004-H08H), HER3 His Tag (Sino Biological, 10201-H08H) and HER4 His Tag (Sino Biological, 10363-H08H) were biotinylated using the Lightning-Link™ Biotin kit (Innova Biosciences, 704-0030) following the supplier's protocol. The biotinylated antigens were coated in different wells on MaxiSorp™ plate (Nunc) at 1 μg/ml in PBS overnight at 4° C. and excess unbound antigens were washed off with PBS. The antigen-coated plate was blocked with 1% TWEEN® in PBS (PBST) for 1 hour at room temperature. After removing PBST, the anti-EGFR Fcabs (1 μM) and relevant positive and IgG negative antibody controls (1 μM) in 0.1% PBST were incubated for 1 hour to bind the coated antigens followed by washing. The bound Fcabs or antibodies were detected by Protein A-HRP (ThermoFisher 101023) or anti-mouse IgG-horseradish peroxidase (HRP) (Sigma A9044) for the HER4 positive control. Tetramethylbenzidine (TMB) (eBioscience 00-4201-56) was used as the substrate to interact with HRP enzyme for colorimetric detection. 1 M Sulphuric acid was added to stop the enzyme-substrate reaction. The plate was read at an absorbance of 450 nm subtracted by 630 nm as background.

[1] = tested on: phosphorylation of c-Met and EGFR; assay: Western blot of receptor phosphorylation in U87MG cells; assay type: cell-based, human; conditions: 200 nM, 20 min
Protocol: (§1) Overnight cultures of the glioblastoma cell line U87MG (ATCC HTB-14) were moved from a medium with 10% FBS to a low serum medium with 0.1% FBS to optimise sensitivity to ligand stimulation. The cells were incubated overnight. […] Controls without antibody treatment were included, with and without growth factor stimulation. The treated cells were lysed using lysis buffer (10 mM Tris® pH7.5, 150 mM NaCl, 1 mM EDTA) comprising 1:100 protease inhibitor cocktail (Calbiochem, 539131) and 1:100 Phosphatase inhibitor cocktail (Calbiochem, 524625) and the lysates collected for analysis.
(§2) Lysate samples were subjected to standard western blotting analysis using a 4-12% Bis-Tris® protein gel (ThermoFisher, NP0322BOX) and transferred to a nitrocellulose membrane (ThermoFisher, IB301001). The membrane was blocked with 5% Marvel milk/TBST and then probed for phospho-c-Met using a rabbit monoclonal antibody specific for c-Met phosphorylated at Tyr1234/1235 (Cell Signaling, 3077), phospho-EGFR using a mouse monoclonal antibody specific for EGFR phosphorylated at Tyr1068 (Cell Signaling, 2236), phospho-MAPK using a mouse monoclonal antibody specific for p44/42 MAPK (ERK1/2) phosphorylated at Thr202/Tyr204 (Cell Signaling, 9106), and phospho-Akt using a rabbit monoclonal antibody specific for Akt phosphorylated at Ser473 (Cell Signaling, 9271). […]

[2] = tested on: phosphorylation of MAPK and Akt; assay: Western blot of downstream signalling in U87MG cells; assay type: cell-based, human; conditions: 200 nM (200+200 nM for combination), HGF and EGF present
Protocol: as §1, §2

NCI-H596 cells = assay: Cell proliferation, NCI-H596 cells stimulated with EGF and HGF; assay type: cell-based; conditions: NCI-H596, 10-1000 nM, 2 ng/ml EGF and 12 ng/ml HGF, 3 days
Protocol: NCI-H596 (ATCC HTB-178) is a lung adenosquamous cancer cell line that engages both the EGF and HGF signalling pathways and was used to investigate the ability of mAb^2 molecules to block proliferation. The same method was used as in the U87MG assay described above, except that the NCI-H596 cells were stimulated with both EGF and HGF ligands. One day before the treatment, the level of FBS used in the media was reduced from 10% to 1%. The next day treatments were added at various concentrations (10-1000 nM) in the presence of 2 ng/ml EGF (R&D systems, 236-EG) and 12 ng/ml HGF (PeproTech, 100-39) and incubated for 3 days at 37° C. Controls of HGF+EGF, EGF only, HGF only and no ligand stimulation were also included.

NCI-H1975 cells = assay: Cell proliferation, NCI-H1975 cells stimulated with HGF; assay type: cell-based
Protocol: NCI-H1975 (ATCC CRL-5908) is a non-small cell lung cancer (NSCLC) cell line which expresses constitutively active mutated EGFR L858R and EGFR T790M (Kobayashi et al 2005). These mutations are acquired secondary mutations known to confer resistance to EGFR tyrosine kinase inhibitor (TKI) therapies in NSCLC patients. The NCI-H1975 cell line also expresses c-Met. […] The same method was used as in the U87MG assay described above, except that the NCI-H1975 cells were stimulated with HGF. One day before the treatment, the medium used was changed from containing 10% FBS to containing no serum. Treatments were added at various concentrations (0.003-300 nM) in the presence of 80 ng/ml HGF and incubated for 3 days at 37° C.

KP4 cells = assay: Cell proliferation, KP4 cells (WST-1); assay type: cell-based; conditions: KP4, 0.003-300 nM, 3 days
Protocol: KP4 (Riken RCB1005) is a pancreatic ductal cell carcinoma which has autocrine production of HGF. […] After 3 days, cells were analysed using cell proliferation reagent WST-1 (Roche) to determine the number of viable cells as described in the manufacturer's protocol. The stable tetrazolium salt WST-1 is cleaved to a soluble formazan by the glycolytic production of NAD(P)H in viable cells. The amount of formazan dye formed is quantitated at absorbances 450 nm and 630 nm.

HGF = molecular target: T2, HGF (Homo sapiens, UniProt P14210); assay: Free HGF in culture media of U87MG cells (HGF Human ELISA Kit); assay type: cell-based; conditions: 30 nM, 4 days, compared to controls
T2 construct: examined in U87MG cells that secrete HGF; endogenous in cells; host or cells: U87MG
T2 sequence (P14210 32-728): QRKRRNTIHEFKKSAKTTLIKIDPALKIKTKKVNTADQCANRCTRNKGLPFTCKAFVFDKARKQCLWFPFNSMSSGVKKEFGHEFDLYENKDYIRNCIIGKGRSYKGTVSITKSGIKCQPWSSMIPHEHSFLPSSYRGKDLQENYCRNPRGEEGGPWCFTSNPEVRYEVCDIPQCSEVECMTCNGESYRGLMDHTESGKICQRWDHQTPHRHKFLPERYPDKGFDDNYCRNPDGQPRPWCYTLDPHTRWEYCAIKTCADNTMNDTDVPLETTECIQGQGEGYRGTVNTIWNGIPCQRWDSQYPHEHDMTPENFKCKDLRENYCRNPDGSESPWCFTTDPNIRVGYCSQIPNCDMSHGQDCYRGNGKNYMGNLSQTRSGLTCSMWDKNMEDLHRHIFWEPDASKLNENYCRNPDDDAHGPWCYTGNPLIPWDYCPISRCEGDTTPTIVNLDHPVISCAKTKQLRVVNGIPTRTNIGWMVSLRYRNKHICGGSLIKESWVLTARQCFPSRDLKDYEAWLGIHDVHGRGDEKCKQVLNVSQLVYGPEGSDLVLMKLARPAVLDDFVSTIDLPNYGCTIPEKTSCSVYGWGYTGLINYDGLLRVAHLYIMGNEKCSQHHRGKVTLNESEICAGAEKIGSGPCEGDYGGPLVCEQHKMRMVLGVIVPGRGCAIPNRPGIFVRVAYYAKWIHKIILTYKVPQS
Protocol: It was hypothesised that internalisation of HGF by anti-EGFR/HGF mAb^2 leads to reduced level of HGF in the system. To test this hypothesis, the change in level of free HGF caused by incubation with anti-EGFR/HGF mAb^2 was examined in U87MG cells that secrete HGF. U87MG cultures were incubated with different treatments at 30 nM for 4 days at 37° C. […] On day 4, the media from each cell culture were collected for HGF level analysis. HGF concentration was measured using HGF Human ELISA Kit (ThermoFisher, KAC2211) following the manufacturer's protocol. Using monoclonal anti-HGF antibodies, the free HGF in media was detected (free HGF was defined as HGF in the media which was bound by detection antibodies).

B1: MM121: antibody MM121 (Merrimack), positive control for HER3 (antibody, chains of the INN, looked up)
heavy: EVQLLESGGGLVQPGGSLRLSCAASGFTFSHYVMAWVRQAPGKGLEWVSSISSSGGWTLYADSVKGRFTISRDNSKNTLYLQMNSLRAEDTAVYYCTRGLKMATIFDYWGQGTLVTVSSASTKGPSVFPLAPCSRSTSESTAALGCLVKDYFPEPVTVSWNSGALTSGVHTFPAVLQSSGLYSLSSVVTVPSSNFGTQTYTCNVDHKPSNTKVDKTVERKCCVECPPCPAPPVAGPSVFLFPPKPKDTLMISRTPEVTCVVVDVSHEDPEVQFNWYVDGVEVHNAKTKPREEQFNSTFRVVSVLTVVHQDWLNGKEYKCKVSNKGLPAPIEKTISKTKGQPREPQVYTLPPSREEMTKNQVSLTCLVKGFYPSDIAVEWESNGQPENNYKTTPPMLDSDGSFFLYSKLTVDKSRWQQGNVFSCSVMHEALHNHYTQKSLSLSPG
light: QSALTQPASVSGSPGQSITISCTGTSSDVGSYNVVSWYQQHPGKAPKLIIYEVSQRPSGVSNRFSGSKSGNTASLTISGLQTEDEADYYCCSYAGSSIFVIFGGGTKVTVLGQPKAAPSVTLFPPSSEELQANKATLVCLVSDFYPGAVTVAWKADGSPVKVGVETTKPSKQSNNKYAASSYLSLTPEQWKSHRSYSCRVTHEGSTVEKTVAPAECS
binding to HER3 (HER3): bound to their corresponding antigens

B2: ficlatuzumab (antibody, V domains shown)
VH: QVQLVQPGAEVKKPGTSVKLSCKASGYTFTTYWMHWVRQAPGQGLEWIGEINPTNGHTNYNQKFQGRATLTVDKSTSTAYMELSSLRSEDTAVYYCARNYVGSIFDYWGQGTLLTVSS
VL: DIVMTQSPDSLAMSLGERVTLNCKASENVVSYVSWYQQKPGQSPKLLIYGASNRESGVPDRFSGSGSATDFTLTISSVQAEDVADYHCGQSYNYPYTFGQGTKLEIKR
modifications: FI VH domain; FI VL domain
block of phosphorylation of c-Met by HGF [1]: able to block the phosphorylation of c-Met by HGF | block of phosphorylation of MAPK and Akt [2]: unable to block the phosphorylation of MAPK and Akt | inhibition of cell proliferation induced by HGF and EGF (NCI-H596 cells): unable to block stimulation when both ligands were present | reduction of cell proliferation induced by HGF (NCI-H1975 cells; NCI-H1975, 0.003-300 nM, 80 ng/ml HGF, 3 days): did not | reduction of cell proliferation induced by HGF (NCI-H1975 cells; NCI-H1975, antibodies 300 nM with and without erlotinib (2 μM)): No effect | reduction in cell proliferation (WST-1) (KP4 cells): concentration-dependent reduction in cell proliferation; also recorded: inhibited cell proliferation, but to a lesser extent | concentration of free HGF in the media (HGF): significant decrease in the concentration of free HGF in the media
